From article PMC5514143, “A Drug Carrier for Sustained Zero-Order Release of Peptide Therapeutics” (Scientific Reports, 2017)

Legend:
[1] = administered via injection; cited from earlier work
Text: The key goal of a release system is to maintain the plasma drug concentration within the therapeutic window for a prolonged period of time. For zero-order release carriers, as the drug is released at constant rate, it will be possible to maintain the plasma drug concentration constant. This will avoid a plasma drug concentration which is too high to exert toxic effects, or too low to fail to exert therapeutic effects, and therefore lead to the best outcome. As expected, for rats with implanted PEG-sCT/TA films, the plasma concentration of PEG-sCT remains almost constant (Fig. 7A). When a 20 bi ...

[2] = Circular dichroism of PEG-sCT released from the film; assay type: physicochemical; details: CD 190-260 nm, room temperature, 0.1 cm path cell; release media
Method: UV-vis absorption spectra were recorded on a UV-1800 spectrophotometer (SHIMADZU, Japan). Fourier transform infrared (FTIR) spectra were measured on Bio-Rad FTS-6000 spectrometer. CD measurement was performed on a Biologic MOS-450 (Claix, France) at room temperature in a 0.1 cm path cell. The CD signals were recorded from 190 to 260 nm using a bandwidth of 4.0 nm and a scanning rate of 50 nm/min. SEM images were recorded on an FEI NanoSEM 430 Scanning Electron Microscope. Atomic force microscopy (AFM) images were acquired using a Benyuan CSPM5000s scanning probe microscope in tapping mode.

Substance: PEGylated salmon calcitonin [PEG-sCT]
- half-life of PEG-sCT [1]: ~ 83 min
- secondary structure of PEG-sCT released from the film (CD spectra vs native drug) [2]: remains unchanged
